# Reference: US20140308707A1, “METHOD FOR PRODUCTION OF FACTOR VIII” (Novo Nordisk A/S, priority 2011, published 2014)
# “And” between values parts separate entries of the source, which are not always exact repeats. Equal entries are not always repeated.
# Assays:
# [1] = tested on: CHO DUKX B11 cells stably expressing BDD-FVIII; assay: FVIII membrane displacement cell cultures (additives in culture medium, culture fluid and membrane bound fraction assayed); format: cell-based; conditions: 24 hours, serum free medium, OPLS 20 mM, F8 LC 1.38 μM, Lactadherin 0.15 μM, unit from b101
# Method: The additives mentioned below (lactadherin, Factor VIII light chain and/or OPLS) were added to the culture medium and the cells were incubated for 24 hours following assaying of the culture fluid and the membrane bound fraction.
# [2] = tested on: cell membrane of HEK293 cells; assay: Homologous competition assay: binding of 125I-BDD-FVIII to the cell membrane with blocking agents; conditions: for % of total binding: 0.5 nM 125I-FVIII, 4° C., 2 hours, Annexin V 500 nM, OPLS 20 mM, Heparin 100 ug/mL, RAP 500 nM; for reduction of membrane attached FVIII: same experiment as Table 2
# Method: The affinity of purified B-domain deleted factor VIII (BDD-FVIII) (kindly provided by J. Karlsson and L. Thim, Novo Nordisk A/S) to the cell membrane of HEK293 cells was investigated by a homologous competition assay using ^125I-BDD-FVIII and unlabelled BDD-FVIII. Cells were washed once in PBS+1% BSA. 5×10^5 cells were distributed to a microtiter well and the plate was cooled to 4° C. During blocking of the cell surface, binding of BDD-FVIII was examined. A constant concentration of ^125I-FVIII (0.5 nM) was added simultaneously with either Annexin V (0.5 μM, Sigma), Ortho-Phospho-L-serine (20 mM, Sigma), Heparin (100 μg mL-1, Leo Pharmaceuticals), and Receptor Associated Protein (RAP) 0.5 μM (kindly provided by H. H. Petersen, Novo Nordisk A/S) at 4° C. to prevent endocytosis.
# The plate was incubated at 4° C. for 2 hours with gentle shaking. After centrifugation unbound (non-membrane attached) ^125I-FVIII was removed and cells were washed twice in ice-cold assay buffer (10 mM HEPES, 150 mM NaCl, 4 mM KCl, 11 mM glucose, 5 mM CaCl2, 1 mg ml^−1 BSA, pH 7.4). Surface bound ^125I-FVIII was counted on a gamma-counter. The experiments were performed twice in triplicate. Non-specific binding was estimated in the presence of 12000× excess of unlabeled BDD Factor VIII.
# In an attempt to determine potent inhibitors of the cell membrane interaction, four proteins known for their specific effect in either: 1) blocking phosphatidylserine (annexin V), 2) interacting with the C2 domain of FVIII (OPLS), 3) interacting with receptors that facilitate internalisation followed by degradation such as LRP (Lipoprotein receptor-related protein) and HSPGs (heparin sulphate proteoglycans) were tested (RAP, heparin).
# HKB11 cells [3] = assay: Transient co-expression with F8, FVIII coagulation activity (two-stage chromogenic assay, coa); format: cell-based; conditions: for displacement of F8 from the cell surface into the supernatant: in words
# Method: (§1) HEK293 cells were maintained in commercial FreeStyle medium supplemented with 50 U/mL penicillin and 50 ug/mL streptomycin. Cells were grown as suspension cells in shakers and incubated at 37° C. under 5% CO2 and 95% relative humidity conditions.
# (§2) Cells were seeded at a density of 3×10^5 cells/mL and passaged every 3-4 days. For transfection experiments the cell culture was scaled up until the target density was reached. Viable and total cell concentrations were evaluated by Cedex (Innovartis) analysis. The instrument uses image analysis software for automated cell counting and viable cells were identified based on their ability to exclude trypan blue.
# (§3) Plasmid DNA was transfected into HKB11 cells by 293 fectin following the manufacturer's recommendations. Conditioned medium was harvested on indicated days following gentle centrifugation of the suspension culture. The cell pellet was resuspended in FreeStyle medium containing 0.5M NaCl and after gentle centrifugation, a sample, representing the FVIII attached to the cell membrane was taken. Samples were stored at −80° C. until analysis.
# (§4) FVIII coagulation activity was measured by a two-stage chromogenic assay (Coamatic Factor VIII analysis kit, Chromogenix). Factor VIII:Ag assay was performed using polyclonal antibodies from Affinity Biologicals (F8C-EIA). Both assays were done following the manufactures instructions and with in-house B-domain deleted affinity purified Factor VIII as standard.
# HKB11 cells [4] = assay: Transient co-expression with F8, Factor VIII:Ag ELISA; format: cell-based
# Method: as §1, §2, §3, §4
molecule,measurement,setting,value
"N[C@@H](COP(=O)(O)O)C(=O)O [OPLS, Ortho-Phospho-L-serine, reference compound]",supernatant average (activity of FVIII in the culture medium),[1],6000 mU/mL and 6347 mU/mL
same,wash average (FVIII activity on the membrane),[1],1691 mU/mL
same,% of total binding,[2],68.4%
same,reduction of membrane attached FVIII,[2],~30%
Heparin,% of total binding,[2],86.8%
same,reduction of membrane attached FVIII,[2],small but not significant effect
RAP: Receptor Associated Protein (RAP),% of total binding,[2],106.6%
same,reduction of membrane attached FVIII,[2],no effect
"Lactadherin: lactadherin, agent that binds to phosphatidylserine; added to medium or co-expressed with F8 (protein, homo sapiens, added to medium or co-expressed with F8) LDICSKNPCHNGGLCEEISQEVRGDVFPSYTCTCLKGYAGNHCETKCVEPLGMENGNIANSQIAASSVRVTFLGLQHWVPELARLNRAGMVNAWTPSSNDDNPWIQVNLLRRMWVTGVVTQGASRLASHEYLKAFKVAYSLNGHEFDFIHDVNKKHKEFVGNWNKNAVHVNLFETPVEAQYVRLYPTSCHTACTLRFELLGCELNGCANPLGLKNNSIPDKQITASSSYKTWGLHLFSWNPSYARLDKQGNFNAWVAGSYGNDQWLQVDLGSSKEVTGIITQGARNFGSVQFVASYKVAYSNDSANWTEYQDPRTGSSKIFPGNWDNHSHKKNLFETPILARYVRILPVAWHNRIALRLELLGC",displacement of F8 from the cell surface into the supernatant,"HKB11 cells [3]; day 3, viability ~90%",effectively displacement
same,displacement of F8 from the cell surface into the supernatant,"HKB11 cells [3]; day 4, viability ~80%",could no longer keep F8 in the supernatant
same,"coa, supernatant","HKB11 cells [3]; harvest day 3, supernatant",5448 +/− 122 mU/ml
same,"coa, wash","HKB11 cells [3]; harvest day 3, wash (0.5M NaCl, membrane attached FVIII)",640 +/− 116 mU/ml
same,"coa, supernatant","HKB11 cells [3]; harvest day 4, supernatant",1044 +/− 425 mU/ml
same,"coa, wash","HKB11 cells [3]; harvest day 4, wash (0.5M NaCl, membrane attached FVIII)",3575 +/− 558 mU/ml
same,"coa, supernatant","HKB11 cells [3]; harvest day 5, supernatant",327 +/− 13 mU/ml
same,"coa, wash","HKB11 cells [3]; harvest day 5, wash (0.5M NaCl, membrane attached FVIII)",3510 +/− 46 mU/ml
same,"FVIII ELISA, supernatant","HKB11 cells [4]; harvest day 3, supernatant",530 ± 113 ng/mL
same,"FVIII ELISA, wash","HKB11 cells [4]; harvest day 3, wash",67 ± 0 ng/mL
same,"FVIII ELISA, supernatant","HKB11 cells [4]; harvest day 4, supernatant",270 ± 54 ng/mL
same,"FVIII ELISA, wash","HKB11 cells [4]; harvest day 4, wash",278 ± 37 ng/mL
same,"FVIII ELISA, supernatant","HKB11 cells [4]; harvest day 5, supernatant",108 ± 119 ng/mL
same,"FVIII ELISA, wash","HKB11 cells [4]; harvest day 5, wash",287 ± 33 ng/mL
same,supernatant average (activity of FVIII in the culture medium),[1],8085 mU/mL
same,wash average (FVIII activity on the membrane),[1],1406 mU/mL
same,supernatant average (activity of FVIII in the culture medium),[1]; listed as lactadherin,further increases the amount of FVIII in the culture medium
same,wash average (FVIII activity on the membrane),[1]; listed as lactadherin,a decline in membrane bound FVIII is observed
"Annexin V: Ca++ dependent phospholipid-binding protein that react with phosphatidylserine (Sigma) (protein, homo sapiens) MAQVLRGTVTDFPGFDERADAETLRKAMKGLGTDEESILTLLTSRSNAQRQEISAAFKTLFGRDLLDDLKSELTGKFEKLIVALMKPSRLYDAYELKHALKGAGTNEKVLTEIIASRTPEELRAIKQVYEEEYGSSLEDDVVGDTSGYYQRMLVVLLQANRDPDAGIDEAQVEQDAQALFQAGELKWGTDEEKFITIFGTRSVSHLRKVFDKYMTISGFQIEETIDRETSGNLEQLLLAVVKSIRSIPAYLAETLYYAMKGAGTDDHTLIRVMVSRSEIDLFNIRKEFRKNFATSLYSMIKGDTSGDYKKALLLLCGEDD",% of total binding,[2],28.5%
same,reduction of membrane attached FVIII,[2],~70%
